Test results: patent US20080194020A1 (MEDICAL AND BIOLOGICAL LABORATORIES, published 2008)

T1: TAP1 (mouse (endogenous in mouse DC2.4 cells), UniProt P21958 1-724)
T1 construct: Endogenous protein in the cell lysate; also called TAP1/2
T1 sequence (looked up): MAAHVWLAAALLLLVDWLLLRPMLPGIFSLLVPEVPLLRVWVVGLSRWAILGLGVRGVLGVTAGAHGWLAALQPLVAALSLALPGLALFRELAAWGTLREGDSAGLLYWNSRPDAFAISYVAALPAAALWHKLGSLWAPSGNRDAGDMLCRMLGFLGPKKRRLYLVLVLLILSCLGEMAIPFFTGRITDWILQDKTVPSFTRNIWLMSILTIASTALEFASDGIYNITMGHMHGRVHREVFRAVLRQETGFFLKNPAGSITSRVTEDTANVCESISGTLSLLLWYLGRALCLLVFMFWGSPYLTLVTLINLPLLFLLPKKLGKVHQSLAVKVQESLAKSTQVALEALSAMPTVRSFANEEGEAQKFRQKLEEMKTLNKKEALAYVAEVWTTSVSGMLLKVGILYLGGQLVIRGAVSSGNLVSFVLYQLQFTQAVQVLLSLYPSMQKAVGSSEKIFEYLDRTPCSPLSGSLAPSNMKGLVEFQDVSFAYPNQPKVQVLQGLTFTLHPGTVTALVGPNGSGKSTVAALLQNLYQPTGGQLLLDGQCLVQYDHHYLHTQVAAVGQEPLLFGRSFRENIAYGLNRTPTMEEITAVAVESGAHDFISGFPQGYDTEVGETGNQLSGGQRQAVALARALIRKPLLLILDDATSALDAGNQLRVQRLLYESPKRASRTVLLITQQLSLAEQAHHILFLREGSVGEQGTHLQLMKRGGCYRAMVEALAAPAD

T2: TAP2 (mouse (endogenous in mouse DC2.4 cells), UniProt P36371 1-702)
T2 construct: Endogenous protein in the cell lysate; also called TAP1/2
T2 sequence (looked up): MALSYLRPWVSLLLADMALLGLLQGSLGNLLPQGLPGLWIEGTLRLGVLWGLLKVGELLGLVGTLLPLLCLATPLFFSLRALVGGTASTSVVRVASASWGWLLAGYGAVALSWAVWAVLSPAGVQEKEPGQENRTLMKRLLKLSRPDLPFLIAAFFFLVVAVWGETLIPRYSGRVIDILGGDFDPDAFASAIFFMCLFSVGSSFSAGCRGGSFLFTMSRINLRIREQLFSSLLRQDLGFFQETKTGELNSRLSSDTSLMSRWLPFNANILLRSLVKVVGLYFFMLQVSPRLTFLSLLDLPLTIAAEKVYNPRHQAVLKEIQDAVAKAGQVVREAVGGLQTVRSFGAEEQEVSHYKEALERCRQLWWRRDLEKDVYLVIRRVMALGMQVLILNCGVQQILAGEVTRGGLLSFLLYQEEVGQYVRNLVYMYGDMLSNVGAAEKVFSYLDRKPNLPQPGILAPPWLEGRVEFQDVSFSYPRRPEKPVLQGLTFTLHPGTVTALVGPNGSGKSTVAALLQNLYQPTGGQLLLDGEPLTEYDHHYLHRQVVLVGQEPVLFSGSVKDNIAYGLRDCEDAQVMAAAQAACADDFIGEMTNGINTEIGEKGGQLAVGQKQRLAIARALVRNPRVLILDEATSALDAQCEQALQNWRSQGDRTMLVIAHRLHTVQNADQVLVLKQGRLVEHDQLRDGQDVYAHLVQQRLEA

B1: biotin-labeled chicken ovalbumin (bOVA) (other, UniProt P01012 2-386, looked up)
chain: GSIGAASMEFCFDVFKELKVHHANENIFYCPIAIMSALAMVYLGAKDSTRTQINKVVRFDKLPGFGDSIEAQCGTSVNVHSSLRDILNQITKPNDVYSFSLASRLYAEERYPILPEYLQCVKELYRGGLEPINFQTAADQARELINSWVESQTNGIIRNVLQPSSVDSQTAMVLVNAIVFKGLWEKAFKDEDTQAMPFRVTEQESKPVQMMYQIGLFRVASMASEKMKILELPFASGTMSMLVLLPDEVSGLEQLESIINFEKLTEWTSSNVMEERKIKVYLPRMKMEEKYNLTSVLMAMGITDVFSSSANLSGISSAESLKISQAVHAAHAEINEAGREVVGSAEAGVDAASVSEEFRADHPFLFCIKHIATNAVLFFGRCVSP
modifications: biotin-labeled (sites not given)

Legend:
[1] = molecular target: B1; assay: cell-based or functional assay
TAP1 = molecular target: T1, TAP1; assay: co-immunoprecipitation with anti-TAP1 from DC2.4 lysate, blot with SA-HRP
Method: (§1) DC2.4 cells were incubated with bOVA and subjected to co-immunoprecipitation with anti-Sec61α. bOVA was added at 2.5 mg mL⁻¹ to cell lysates before immunoprecipitation (the two left-hand lanes in each panel).
(§2) 2×10⁷ DC2.4 or BMDC cells were cultured for four hours in a medium containing 10 μM MG-132 in the presence of bOVA at 250 μg mL⁻¹. Cells were lysed in 20 mM HEPES pH7.6 containing 1% digitonin and protease inhibitors to collect biotin-labeled samples. The samples were cleared of impurities in advance using protein G sepharose (Amersham Pharmacia Biotech), and after incubation with antibodies for precipitation (anti-Sec61β, anti Sec61α, anti-VCP, anti-BiP, anti-PDI, anti-calreticulin, anti-TAP1, and anti-TAP2), the immunoprecipitates were collected using protein G. When chicken anti-CHIP antibody was used, immunoprecipitates were collected using a rabbit anti-IgY column (a person, MBL). The precipitated samples were analyzed by SDS-PAGE and Western blotting.

TAP2 = molecular target: T2, TAP2; assay: co-immunoprecipitation with anti-TAP2 from DC2.4 lysate, blot with SA-HRP
Method: as §1, §2

Row | polyubiquitination of bOVA in CHIP-knocked-down DC2.4 cells relative to parental cells [1] [%] | binding result (TAP1) | binding result (TAP2) | Binder
1 | 34 | – | – | CHIP, an E3-ubiquitin ligase (enzyme, mouse (endogenous in mouse DC2.4 cells), UniProt Q9WUD1 1-304, looked up) MKGKEEKEGGARLGTGGGGSPDKSPSAQELKEQGNRLFVGRKYPEAAACYGRAITRNPLVAVYYTNRALCYLKMQQPEQALADCRRALELDGQSVKAHFFLGQCQLEMESYDEAIANLQRAYSLAKEQRLNFGDDIPSALRIAKKKRWNSIEERRIHQESELHSYLTRLIAAERERELEECQRNHEGHEDDGHIRAQQACIEAKHDKYMADMDELFSQVDEKRKKRDIPDYLCGKISFELMREPCITPSGITYDRKDIEEHLQRVGHFDPVTRSPLTQEQLIPNLAMKEVIDAFISENGWVEDY
2 | – | no binding | no binding | B1
